B1: M20-D02 S-A (antibody, human IgG1, V domains shown)
VH: EVQLLESGGGLVQPGGSLRLSCAASGFTFSDYQMTWIRQTPGKGLEWVSGVSWNGARTHYADSVKGRFTISRDNSKNTLYLQMNSLRAEDTAVYYCAKGDYLVYSAYYFDSWGQGTLVTVTS
VL: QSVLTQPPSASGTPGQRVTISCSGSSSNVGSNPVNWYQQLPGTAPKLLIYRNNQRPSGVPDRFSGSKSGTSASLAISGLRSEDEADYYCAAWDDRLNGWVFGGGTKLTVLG
notes: tested as human IgG1
B2: M31-B01 (antibody, human IgG1, V domains shown)
VH: EVQLLESGGGLVQPGGSLRLSCAASGFTFSNAWMSWVRQAPGKGLEWVSYISSSGSTIYYADSVKGRFTISRDNSKNTLYLQMNSLRAEDTAVYYCAREGLWAFDYWGQGTLVTVTS
VL: QSVLTQPPSASGTPGQRVTISCTGSSSNIGAGYVVHWYQQLPGTAPKLLIYDNNKRPSGVPDRFSGSKSGTSASLAISGLRSEDEADYYCAAWDDRLNGPVFGGGTKLTVLG
notes: tested as human IgG1

Key:
[1] = target: T1, human C4.4a on transfected A549:hC4.4a cells (human, UniProt O95274 31-326); assay: cell-based or functional assay
T1 sequence: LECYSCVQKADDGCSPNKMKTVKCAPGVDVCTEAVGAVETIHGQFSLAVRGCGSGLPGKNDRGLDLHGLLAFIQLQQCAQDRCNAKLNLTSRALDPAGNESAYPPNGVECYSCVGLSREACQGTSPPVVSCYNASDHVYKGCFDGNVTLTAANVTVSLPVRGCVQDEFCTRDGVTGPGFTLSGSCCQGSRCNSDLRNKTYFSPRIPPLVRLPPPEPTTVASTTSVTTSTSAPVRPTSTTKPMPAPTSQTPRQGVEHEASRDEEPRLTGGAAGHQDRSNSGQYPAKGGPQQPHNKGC

[2] = target: T2, human C4.4a natively expressed on tumor cell lines (human, UniProt O95274 31-326); assay: FACS titration of IgG1 on NCI H292 cells
T2 construct: whole, on cells; also called NCI H292; NCI H322
T2 sequence (looked up): T1 sequence
Protocol: (§1) FACS titration was performed in a 96 well microtiter plate, in which serial dilutions of the primary antibody in a volume of 50 W of FACS buffer (3% FCS, in PBS) were mixed with 50 μl of a cell suspension consisting of 2×10^5 cells/ml which had been detached with Cell Dissociation Solution (1×) Non-enzymatic (Sigma), and resuspended in FACS buffer. Incubation was performed at 4° C. for 1 hour with agitation. Cells were pelleted, washed with FACS buffer and resuspended in 100 μl/well of Phycoerythrin labeled goat anti human IgG (Dianova) solution in FACS buffer. Incubation and washing was performed as before. Analysis of cell-bound antibodies was done at the respective detection wavelength using the FACS Array device. EC₅₀ values were determined from fluorescence medians of duplicates using Swift 8.0 software.

[3] = target: T3, recombinant soluble human C4.4a (human, UniProt O95274 31-308); assay: ELISA, IgG1 on coated recombinant human C4.4a
T3 construct: recombinant, soluble, purified protein; also called hC4.4a; full length C4.4a
T3 sequence: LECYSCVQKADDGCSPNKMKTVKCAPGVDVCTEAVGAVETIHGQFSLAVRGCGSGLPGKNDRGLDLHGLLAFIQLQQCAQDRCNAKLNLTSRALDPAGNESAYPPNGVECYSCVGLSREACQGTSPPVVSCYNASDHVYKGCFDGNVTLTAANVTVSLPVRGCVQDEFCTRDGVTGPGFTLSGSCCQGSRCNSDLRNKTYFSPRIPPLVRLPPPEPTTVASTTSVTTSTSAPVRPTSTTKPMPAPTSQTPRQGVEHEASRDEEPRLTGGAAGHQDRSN
Protocol: (§2) FIG. 2 depicts binding curves of anti-C4.4 antibody M31-B01 and M20 D02 S-A on recombinant human C4.4a (A) and murine C4.4a (B) respectively. Briefly, 96-well MTP were coated for 16 h at 4° C. with recombinant human or mouse C4.4a (100 ng/well plates were washed 3 times with PBS/0.05% Tween 20 (=buffer B) treated with blocking reagent (PBS+2% BSA), and washed again 3 times with buffer B. After that anti C4.4a antibodies of the invention were added in concentrations of 0.39 ng to 400 ng/per well and incubated for one hour at 20° C. After washing 3 times with buffer B, 20 ng of Protein A were added in 100 μl buffer B to each well. Color reaction was developed by addition of 50 W 3,3′,5,5′-Tetramethylbenzidine (TMB) (Sigma). Data for EC₅₀ determination were recorded after 18 min by measuring extinction […] a Tecan infinite plate reader. EC₅₀ values for M31-B01 were 0.24 and 0.29 nM on human and murine C4.4a, respectively. And for M20-D02 S-A EC₅₀ values were 0.3 and 0.38 nM on human and murine C4.4a, respectively. This indicates high affinity binding of anti C4.4a antibodies of the invention to both human and murine soluble recombinant C4.4a.

[4] = target: T4, recombinant soluble murine C4.4a (mouse, UniProt Q91YK8 33-343, limits assumed); assay: ELISA, IgG1 on coated recombinant murine C4.4a
T4 construct: also called mouse C4.4a; mC4.4a
T4 sequence (looked up): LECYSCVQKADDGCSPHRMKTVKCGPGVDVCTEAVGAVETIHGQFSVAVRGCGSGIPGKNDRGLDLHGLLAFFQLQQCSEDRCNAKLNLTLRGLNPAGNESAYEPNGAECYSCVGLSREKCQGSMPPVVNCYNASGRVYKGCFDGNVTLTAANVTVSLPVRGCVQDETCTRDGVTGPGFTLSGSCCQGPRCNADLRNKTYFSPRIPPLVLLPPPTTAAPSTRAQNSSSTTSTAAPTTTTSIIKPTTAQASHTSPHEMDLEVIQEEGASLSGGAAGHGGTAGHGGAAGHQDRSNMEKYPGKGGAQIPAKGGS
Protocol: as §2

[5] = target: T3, recombinant soluble human C4.4a; assay: SPR (Biacore T100), IgG1 captured by anti-human Fc, soluble C4.4a injected, 1:1 fit
Protocol: (§3) Binding affinities of anti C4.4 antibodies were determined by surface plasmon resonance analysis on a Biacore T100 instrument (GE Healthcare Biacore, Inc.). Antibodies were immobilized onto a CM5 sensor chip through an indirect capturing reagent, anti-human IgG Fc. Reagents from the “Human Antibody Capture Kit” (BR-1008-39, GE Healthcare Biacore, Inc.) were used as described by the manufacturer. Approximately 5000 RU monoclonal mouse anti-human IgG (Fc) antibody were immobilized per cell. Anti C4.4 antibodies were injected at a concentration of 5 μg/ml at 10 μl/min for 10 sec to reach a capturing level of approximately 200 to 600 RU. Various concentrations (400 nM, 200 nM, 100 nM, 50 nM, 25 nM, 12.5 nM, 6.25 nM, and 3.12 nM) in HEPES-EP buffer (GE Healthcare Biacore, Inc.) of human or murine C4.4a were injected over immobilized anti C4.4a antibodies at a flow rate of 60 μl/min for 3 minutes and the dissociation was allowed for 10 minutes. Sensograms were generated after in-line reference cell correction followed by buffer sample subtraction. The dissociation equilibrium constant (KD) was calculated based on the ratio of association (kₒₙ) and dissociation rated (koff) constants, obtained by fitting sensograms with a first order 1:1 binding model using Biavaluation Software (version 4.0).

[6] = target: T4, recombinant soluble murine C4.4a; assay: as above
Protocol: as §3

[7] = target: T2, human C4.4a natively expressed on tumor …; assay: FACS titration on H1975/BCRP cells (native C4.4a), IgG1 format, phycoerythrin-labelled goat anti-human IgG detection
Protocol: as §1

Binder | internalization t½ [min] into A549:hC4.4a cells (CypHer 5E labeled antibody) [1] [min] | EC50 [2] [nM] | EC50 [3] [nM] | EC50 [4] [nM] | Kd [5] [nM] | Kd [6] [nM] | EC50 [7] [nM]
B1 | 60 | 1.3 | 0.3 | 0.38 | 220 | 180 | 1.3
B2 | 49 | 0.3 | 0.24 | 0.29 | 70 | 130 | 0.4
